The values below come from paper doi:10.1101/2020.02.11.944462 (bioRxiv, 2020).

This assay deals with T1, human angiotensin-converting enzyme 2 (ACE2), residues 1-615, untagged (human, UniProt Q9BYF1 18-615).
T1 construct: also called human ACE2; not shown: TwinStrepTag, C-terminal, cleaved; 8XHisTag, C-terminal, cleaved
As to the kind of experiment: SPR; […], Biacore X100; 10 mM HEPES pH 8.0, 150 mM NaCl, 0.05% Tween 20; […]; 1:1 binding model. Particulars: both partners purified. In general terms: Surface plasmon resonance follows binding to a sensor surface in real time, without labels.

T1 sequence (Q9BYF1 18-615): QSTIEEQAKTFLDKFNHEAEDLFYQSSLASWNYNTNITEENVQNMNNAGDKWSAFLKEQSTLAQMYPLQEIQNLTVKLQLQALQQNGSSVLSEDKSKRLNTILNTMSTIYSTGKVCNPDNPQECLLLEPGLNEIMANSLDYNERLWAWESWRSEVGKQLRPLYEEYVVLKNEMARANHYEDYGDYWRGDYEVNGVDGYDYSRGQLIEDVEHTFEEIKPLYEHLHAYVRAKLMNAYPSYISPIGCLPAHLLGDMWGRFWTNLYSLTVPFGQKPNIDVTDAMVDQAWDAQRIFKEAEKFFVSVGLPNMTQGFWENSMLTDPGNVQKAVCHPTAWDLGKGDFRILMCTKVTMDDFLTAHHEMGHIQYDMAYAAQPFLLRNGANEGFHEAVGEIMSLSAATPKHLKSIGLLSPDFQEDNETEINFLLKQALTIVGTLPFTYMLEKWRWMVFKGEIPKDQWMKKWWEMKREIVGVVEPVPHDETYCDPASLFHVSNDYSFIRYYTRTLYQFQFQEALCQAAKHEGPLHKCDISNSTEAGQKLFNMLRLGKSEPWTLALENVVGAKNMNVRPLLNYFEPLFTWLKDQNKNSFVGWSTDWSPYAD

B1: SARS-CoV RBD-SD1 (S residues 306-577, Urbani strain), His-tagged (domain or fragment)
chain: not shown
With B1, the binding result was “binds”.
